Assay results as given in PMC2647316 (Nucleic Acids Research, 2008).

Target: T1, GkDnaC R120A (Geobacillus kaustophilus HTA426, UniProt Q5KU75 1-454, R120A)
T1 sequence: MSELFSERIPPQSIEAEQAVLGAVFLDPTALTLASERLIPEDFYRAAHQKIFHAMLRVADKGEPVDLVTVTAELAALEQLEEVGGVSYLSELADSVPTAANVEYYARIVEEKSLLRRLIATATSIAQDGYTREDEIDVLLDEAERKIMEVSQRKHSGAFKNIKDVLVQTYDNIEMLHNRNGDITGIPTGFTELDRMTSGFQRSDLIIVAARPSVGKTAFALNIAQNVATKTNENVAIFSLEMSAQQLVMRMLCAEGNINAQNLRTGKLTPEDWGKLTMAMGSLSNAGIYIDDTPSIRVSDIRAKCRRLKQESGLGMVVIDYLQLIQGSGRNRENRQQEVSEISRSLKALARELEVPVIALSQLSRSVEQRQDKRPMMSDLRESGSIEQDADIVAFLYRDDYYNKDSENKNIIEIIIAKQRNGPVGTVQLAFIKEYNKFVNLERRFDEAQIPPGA
Experiment: SPR

TTTTTTTTTTTTTTTTTTTTTTTTTTTTTT (ssDNA) [5'Bio-(dT)30]
Kd: 1.73 µM
